For this test, the target named is full-length human VPS29 (human, UniProt Q9UBQ0 1-182). As to the kind of experiment: ITC; TBC proteins (100∼200 μM) injected into retromer proteins (8–16 μM); 20 °C; 20 mM Tris pH 8, 200 mM NaCl, 5 mM βME; one set of sites model. The following applies: both partners purified.

The values below come from paper PMC5105194 (Nature Communications, 2016).

B1: TBC1d5 Ins1 peptide (peptide)
peptide: GQQDLMINNPLSQDEGSLWNKFFQDKE
notes: TBC1d5 residues 132–158 (Insertion 1 region); The limits are told for the crystallised peptide; source: expressed as MBP fusion, purified (Amylose resin, TEV cleavage, Ni-NTA, Superdex 75); not shown: His6, C-terminal, kept
As to B1, the binding result was “binds”.
